How the values were obtained:
[1] = molecular target: T1, SARS-CoV-2 spike protein trimer, Beta (B.1.351) variant (SARS-CoV-2, UniProt P0DTC2 16-1213); experiment: BLI (Octet), biotinylated spike trimer on streptavidin sensor, IgG titrated
[2] = molecular target: T2, SARS-CoV-2 spike protein trimer, Omicron (B.1.1.529) variant (SARS-CoV-2, UniProt P0DTC2 16-1213)
[3] = molecular target: T1, SARS-CoV-2 spike protein trimer, Beta …; experiment: ELISA, purified IgG
[4] = molecular target: SARS-CoV-2 spike protein trimer, Kappa (B.1.617.1) variant (SARS-CoV-2, UniProt P0DTC2 16-1213); experiment: ELISA, purified IgG
[5] = molecular target: SARS-CoV-2 spike protein trimer, Alpha (B.1.1.7) variant (SARS-CoV-2, UniProt P0DTC2 16-1213); experiment: ELISA, purified IgG
[6] = molecular target: SARS-CoV-2 spike protein trimer, Epsilon (B.1.429) variant (SARS-CoV-2, UniProt P0DTC2 16-1213); experiment: ELISA, purified IgG
[7] = molecular target: SARS-CoV-2 spike protein trimer, Gamma (P.1) variant (SARS-CoV-2, UniProt P0DTC2 16-1213); experiment: ELISA, purified IgG
[8] = molecular target: SARS-CoV-2 spike protein trimer, Delta (B.1.617.2) variant (SARS-CoV-2, UniProt P0DTC2 16-1213); experiment: BLI (Octet), biotinylated spike trimer on streptavidin sensor, IgG titrated
[9] = molecular target: T2, SARS-CoV-2 spike protein trimer, …; experiment: as above

B1: LxC1-G10 (antibody, V domains shown)
VH: EVQLVESGGGLVQPGGSLRLSCTVSGFSLSTYAMSWVRQAPGKGLEWIGVIASNADTYYASWAKGRFTISRDNSKNTLYLQMNSLRAEDTAVYYCARHPGSAGYGYAVYYAMDPWGQGTLVTVSS
VL: DIQMTQSPSSLSASVGDRVTITCQASERVFYGIDWYQQKPGKAPKLLIYGASALWHGVPSRFSGSGSGTDYTLTISSLQPEDFATYYCQQGYMVPIGFGGGTKVEIK
notes: also called light chain engineered candidate
B1 was tested, and the “fold increased affinity compared to hN2Y” value [1] was over 100 fold, the Kd [2] was 0.051 nM and the “fold improvement in IC50 compared to hN2Y” value [2] was over 13 fold.

B2: humanized antibody hN2Y (antibody, V domains shown)
VH: EVQLVESGGGLVQPGGSLRLSCTVSGFSLSTYAMSWVRQAPGKGLEWIGVIASNADTYYASWAKGRFTISRDNSKNTLYLQMNSLRAEDTAVYYCARHPGSAGYGYAVYYAMDPWGQGTLVTVSS
VL: DIQMTQSPSSLSASVGDRVTITCKASEDIRYGLNWYQQKPGKAPKLLIYGANTLEAGVPSRFSGSGSGTDYTLTISSLQPEDFATYYCQQGYSTPLTFGGGTKVEIK
Work on B2 yielded an IC50 [2] of 0.26 µg/mL.

B3: SEQ ID NO 12 (antibody, V domains shown)
VH: EVQLVESGGGLVQPGGSLRLSCTVSGFSLSTYAMSWVRQAPGKGLEWIGVIASNADTYYASWAKGRFTISRDNSKNTLYLQMNSLRAEDTAVYYCARHPGSAGYGYAVYYAMDPWGQGTLVTVSS
VL: DIQMTQSPSSLSASVGDRVTITCQASQPIHYAINWYQQKPGKAPKLLIYGTSHRKMGVPSRFSGSGSGTDYTLTISSLQPEDFATYYCQQGYIVALKFGGGTKVEIK
notes: also called selected clone from LxC libraries; LxC clone
B3: binds [3]; binds [4]; binds [5]. B3: binds [6]; binds [7].

B4: SEQ ID NO 17 (antibody, V domains shown)
VH: EVQLVESGGGLVQPGGSLRLSCTVSGFSLSTYAMSWVRQAPGKGLEWIGVIASNADTYYASWAKGRFTISRDNSKNTLYLQMNSLRAEDTAVYYCARHPGSAGYGYAVYYAMDPWGQGTLVTVSS
VL: DIQMTQSPSSLSASVGDRVTITCQASQPIYYGINWYQQKPGKAPKLLIYGHTYRAWGVPSRFSGSGSGTDFTLTISSLQPEDFATYYCQQGYRVGLGFGGGTKVEIK
notes: As m4
B4: binds [3]; binds [4]; binds [5]. B4: binds [6]; binds [7].

B5: G10xA5 (antibody, V domains shown)
VH: EVQLVESGGGLVQPGGSLRLSCTVSGYTLFPPPVTWVRQAPGKGLEWIGVIASNADTYYASWAKGRFTISRDNSKNTLYLQMNSLRAEDTAVYYCARHPGSAGYGYQYYYAMDPWGQGTLVTVSS
VL: DIQMTQSPSSLSASVGDRVTITCQASERVFYGIDWYQQKPGKAPKLLIYGASALWHGVPSRFSGSGSGTDYTLTISSLQPEDFATYYCQQGYMVPIGFGGGTKVEIK
B5 was tested, and the “fold improved affinity compared to LxC1-G10” value (“fold improved affinity” for short) [8] was over 20 fold and the “fold improved affinity” value [9] was 15 fold.

B6: SEQ ID NO 16 (antibody, V domains shown)
VH: EVQLVESGGGLVQPGGSLRLSCTVSGFSLSTYAMSWVRQAPGKGLEWIGVIASNADTYYASWAKGRFTISRDNSKNTLYLQMNSLRAEDTAVYYCARHPGSAGYGYAVYYAMDPWGQGTLVTVSS
VL: DIQMTQSPSSLSASVGDRVTITCQASQDVKYAINWYQQKPGKAPKLLIYGTSSRGEGVPSRFSGSGSGTDYTLTISSLQPEDFATYYCQQGYVVSIFFGGGTKVEIK
notes: As m4
B6: binds [3]; binds [4]; binds [5]. B6: binds [6]; binds [7].

B7: G10xA1 (antibody, V domains shown)
VH: EVQLVESGGGLVQPGESLRLSCKASGFTFPNQAMTWVRQAPGKGLEWIGVIASNADTYYASWAKGRFTISRDNSKNTLYLQMNSPRAEDTAVYYCARHPGSAGYGYALYYAMDPWGQGTLVTVSS
VL: DIQMTQSPSSLSASVGDRVTITCQASERVFYGIDWYQQKPGKAPKLLIYGASALWHGVPSRFSGSGSGTDYTLTISSLQPEDFATYYCQQGYMVPIGFGGGTKVEIK
With B7 the “fold improved affinity” value [8] was over 20 fold and the “fold improved affinity” value [9] was 1.2 fold.

B8: SEQ ID NO 18 (antibody, V domains shown)
VH: EVQLVESGGGLVQPGGSLRLSCTVSGFSLSTYAMSWVRQAPGKGLEWIGVIASNADTYYASWAKGRFTISRDNSKNTLYLQMNSLRAEDTAVYYCARHPGSAGYGYAVYYAMDPWGQGTLVTVSS
VL: DIQMTQSPSSLSASVGDRVTITCKASEDIRYGLNWYQQKPGKAPKLLIYGGSYLRWGVPSRFSGSGSGTDYTLTISSLQPEDFATYYCQQGYRVPIRFGGGTKVEIK
notes: As m4; also called selected clone from LxC libraries; LxC clone
B8: binds [3]; binds [4]; binds [5]. B8: binds [6]; binds [7].

B9: SEQ ID NO 15 (antibody, V domains shown)
VH: EVQLVESGGGLVQPGGSLRLSCTVSGFSLSTYAMSWVRQAPGKGLEWIGVIASNADTYYASWAKGRFTISRDNSKNTLYLQMNSLRAEDTAVYYCARHPGSAGYGYAVYYAMDPWGQGTLVTVSS
VL: DIQMTQSPSSLSASVGDRVTITCQASQKIHYAINWYQQKPGKAPKLLIYGTSYLGGGVPSRFSGSGSGTDFTLTISSLQPEDFATYYCQQGYIVPNSFGGGTKVEIK
notes: As m4
B9: binds [3]; binds [4]; binds [5]. B9: binds [6]; binds [7].
